The target in one assay is papain. Put plainly: Enzymatic inhibitory activity against papain (kinetic analysis, Z-Phe-Arg-AMC substrate). As to conditions: papain 380 pM, substrate Z-Phe-Arg-AMC 5 μM, 0.1M phosphate buffer pH 6.0. It counts as biochemical. As to the method: (§1) The inhibitory activity of Elstatin (polypeptide of the present invention) against papain and cathepsin L was measured by the method of Barrett, A. J. and Kirschke, H. described in Method Enzymol., 80, 535-561 (1981) using Bz--DL--Arg-2-naphthylamide or Z--Phe--Arg--MCA as a substrate (Bz, Z and AMC represent benzoyl, benzyloxycarbonyl, and 4-methyl-7-coumarylamide).
(§2) The active site of the enzyme was titrated using a cysteine protease inhibitor Ep-475 (L-3-carboxy-trans-2,3-epoxypropyl-leucylamide-(3-guanizino)butane). Papain which had undergone the titration of active site was used to determine the molarity of the inhibitor (Turk, B. et al. J. Biol. Chem. 268, 7323-7329 (1993)).
(§3) The rate of the reaction employing Z--Phe--Arg--AMC as a substrate was determined by the kinetic analysis of Elstatin, papain, and cathepsin L. Different concentrations of Elstatin and a substrate (papain: 5 μM, cathepsin L: 10 μM) were dissolved in 1.97 ml of a buffer solution described above. In the measurement of cathepsin L, 0.34M acetate buffer (pH 5.5) containing 2 mM dithiothreitol and 1.5 mM EDTA was used. The reaction was started by the addition of 30 μl of activated papain (final concentration: 380 pM) and cathepsin L (final concentration: 60 pM). […] The obtained data were analysed by a non-linear regression analysis of Morrison (Trends Biochem. Sci. 7, 102-105 (1982)).

Another assay concerns the target cathepsin B. Kind of assay: Enzymatic inhibitory activity against cathepsin B (stopped assay). In kind it is biochemical. As to conditions: cathepsin B 130 nM, Elstatin 50-750 nM, pH 6.0, 25° 20 minutes, Bz-DL-Arg-2-naphthylamide. As to the method: (§4) Equilibrium dissociation constant (Ki) of Elstatin and cathepsin B and H was determined using stopped assay method. In detail, cathepsin B (final concentration: 130 nM) and cathepsin H (final concentration: 25 nM) were incubated together with different concentrations of Elstatin (final concentration: 50-750 nM) in 0.1M phosphate buffer (pH 6.0) containing 2 mM of dithiothreitol and 1.5 mM of EDTA at 25° for 20 minutes. The residual activity was determined using Bz--DL--Arg-2-naphthylamide as a substrate conditions identical to those according to Barrett, A. J. and Kirschke, H. mentioned above. The value Ki was calculated using a method of Henderson (Biochem. J. 127, 321-333 (1972)).

In a further assay the target is cathepsin H. Put plainly: Enzymatic inhibitory activity against cathepsin H (stopped assay). It counts as biochemical. As to conditions: cathepsin H 25 nM, Elstatin 50-750 nM, pH 6.0, 25° 20 minutes, Bz-DL-Arg-2-naphthylamide. As to the method:
as §4

The target of another assay is cathepsin L. Kind of assay: Enzymatic inhibitory activity against cathepsin L (kinetic analysis, Z-Phe-Arg-AMC substrate). It counts as biochemical. As to the method: as §1, §2, §3
Assay [1] relates to unfractionated bone cells (osteoclastic bone resorption). Kind of assay: Bone resorption inhibitory action (pit formation on ivory slices, parathyroid hormone induced). In kind it is cell-based, Sprague-Dawley rats. The settings on record: 50 nM human parathyroid hormone, 72 hours, FIG. 1. As to the method:
A method proposed by McSheehy, P. M. J. and Chambers, T. J. in J Clin. Invest., 80, 425-429 (1987) was partly modified and applied.
Unfractionated bone cells were prepared from tibiae, femora and humeri of 1 to 2 day-old Sprague-Dawley rats. The bones were dissected into soft tissues in an ice-cold medium (pH 7.2) [α-minimum essential medium (α-MEM) (Flow Laboratories, McLean, Va.), supplemented with 100 IU/ml of benzylpenicillin] containing 20 mM N-2-hydroxyethyl-piperazine-N'-ethanesulfonic acid (HEPES). In order to prepare a bone cell preparation, long bones were minced with a pair of scissors in the same medium. Subsequently, the cell suspension was triturated with a wide bored plastic pipette. 200 μl of cell suspension (1×10^6 cells/ml) was added to each well of a 96 well-plate containing an ivory slice (thickness: 150 μm, diameter: 6 mm; ultrasonicated and disinfected with 75% ethanol), and the cells were incubated at 37° C. for 2 hours in a CO2 incubator (5% CO2 : 95% air). The slices were washed with α-MEM, and transferred to a HEPES-free fresh medium containing 10% FBS, each of test samples of various concentrations and 50 nM of human parathyroid hormone (Peninsula Laboratories Inc., Belmond, Calif.) and incubated for 72 hours. […] The total area of pits was measured under a microscope to detect possible osteoclastic bone resorption.

B1: Elstatin: Novel 103-residue polypeptide (Sequence No. 1) isolated from pig leucocyte cytosol; specifically inhibits cathepsin L (protein)
chain: MESEEMLAGGLTEPRPATPEIQEIANKVKPQLEEKTNKTYEKFEAIIYRSQVVAGTNYYIKVHVGGNNYVHIRVFQSLPHQEDPLKLIGYQVDKTKDDELTGF
Consider B1, for which the Ki on papain stood at 0.19 ± 0.097 nM; at cathepsin B it was 335 ± 50 nM; at cathepsin H, 125 ± 7 nM; at cathepsin L (cathepsin L 60 pM, substrate Z-Phe-Arg-AMC 10 μM, 0.34M acetate buffer pH 5.5), 0.067 ± 0.036 nM. In addition, in the assay with cathepsin L (cathepsin L versus cathepsins B and H), the “Specificity of inhibition among the cathepsin group” value is reported as “specifically inhibits only cathepsin L among the members of the cathepsin group”. Besides, the “Bone resorption inhibitory action (total area of pits)” value in assay [1] is recorded as “significantly potent bone resorption inhibitory action”.

Source of the values: patent US5698519A, “Polypeptide specifically inhibiting cathepsin L” (Taiho Pharmaceutical Co., Ltd., priority 1993, dated 1997).
